# B1: wild type, Q5NV88 (protein)
# chain: NFMLTQPHSVSESPGKTVTISCTRSSGSIASNYVQWYQQRPGSSPTTVIYEDNQRPSGVPDRFSGSIDSSSNSASLTISGLKTEDEADYYCQSYDSSN
# Conditions: Homo sapiens, pH 7.5, Fluorescence, Sodium phosphate 20mM, transition: 2, whole UniProt chain shown
protein,measurement,setting,value
B1,denaturant midpoint (higher = more stable),"25 °C, GdnHCl",1.41 M
same,unfolding free energy,"25 °C, GdnHCl",5.1 kcal/mol
same,Tm,Thermal,49.9 °C
same,unfolding enthalpy (calorimetric),Thermal,86.2 kcal/mol
same,unfolding free energy,Thermal,5.2 kcal/mol
